This assay deals with binding sites on guinea-pig eosinophils (guinea-pig). Put plainly: radioligand binding, 0.1 nM 125I-RANTES on 4x10^5 guinea-pig eosinophils, no competitor.

As for “recombinant human RANTES (from UniProt P13501 24-91) (ligand)”, the BO stood at 14.4%.
